Several values for one entry are separate records, joined by “and”; a condition that tells them apart may be missing. Identical values can stand only once. Bridges are numbered along the chain shown (N, C = ends). Where no end group is shown, it is not given here.
Assays:
[1] = biological target: T1, extracellular domain of the alpha subunit of the human FcεRI (aa 1-176), produced in baculovirus infected … (human, UniProt P12319 26-201, N-linked carbohydrate (NAG on Asn21 seen in the crystal); derivatised with PDEA for thiol coupling to the chip in the biosensor assay); assay: SPR biosensor (BIAcore), peptide over immobilized FcεRIα; Kd (apparent) calculated from kon and koff
T1 construct: range 1-176; Residues 1-176 are probably counted without the signal peptide; also called FcεRIα; soluble FcεRI
T1 sequence (looked up): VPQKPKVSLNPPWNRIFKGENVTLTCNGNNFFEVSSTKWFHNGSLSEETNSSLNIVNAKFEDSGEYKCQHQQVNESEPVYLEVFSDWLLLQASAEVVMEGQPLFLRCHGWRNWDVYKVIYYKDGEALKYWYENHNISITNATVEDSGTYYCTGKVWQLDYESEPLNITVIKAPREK
Description: *peptide is a dimer. SEQ ID NO: describes each monomer of the dimer. "ava" = amino-valeric acid Several peptides were also tested in a direct-binding assay using a surface plasmon resonance biosensor (Lofas & Johnsson, *J. Chem. Soc. Commun.* 21, 1526–1528 (1990)). FcεRIα, produced in baculovirus infected insect cells, was immobilized by the surface thiol method (BIAcore Methods Manual Supplement 5a, BIAcore, Inc., Piscataway, N.J.). Briefly, receptor was reacted with 2-(2-pyridinyldithio)ethaneamine hydrochloride (PDEA; Natake & Swaisgood, *J. Biochem.* 74, 77–86 (1973)), desalted into 10 mM sodium acetate (pH 4.8) and stored in aliquots at −80° C. Thawed PDEA-receptor was injected over carboxymethyl-dextran (B1 or CM5, BIAcore, Inc.) biosensor chips preactivated with N-ethyl-N'-(3-dimethylaminopropyl)-carbodiimide hydrochloride (EDC) and N-hydroxysuccinimide (NHS), cystamine, and DTT. […] Serial dilutions of peptide in running buffer (phosphate-buffered saline containing 0.05% Tween-20, 0.01% sodium azide) were injected over the immobilized receptor, and the net amount of peptide bound at steady-state was measured as the net change in response (RU) at a point just prior to termination of peptide injection, compared to a running-buffer baseline. […] In the case of IGE134 (SEQ ID NOS:), the value shown indicates the Kd calculated from the rate constants, $kon$ and $koff$. […]

[2] = biological target: T2, alpha subunit of the human FcεRI receptor expressed on cells (human, UniProt P12319 26-257); assay: inhibition of 125I-IgE binding to CHO cells expressing FcεRI alpha; 7-10 days after dissolving, when the homodimer had formed
T2 construct: whole, on cells; on rat basophil RBL-48 cells in the histamine release assay; also called CHO FcεRI+ cells; cell surface expressed FcεRI
T2 sequence (looked up): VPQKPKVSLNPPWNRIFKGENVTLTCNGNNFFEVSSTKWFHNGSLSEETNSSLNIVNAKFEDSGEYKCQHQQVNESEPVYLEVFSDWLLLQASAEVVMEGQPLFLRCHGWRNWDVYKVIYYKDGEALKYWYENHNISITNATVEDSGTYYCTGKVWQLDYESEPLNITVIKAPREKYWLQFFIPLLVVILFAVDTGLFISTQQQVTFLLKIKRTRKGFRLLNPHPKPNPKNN
Description: (§1) To determine the ability of peptides to inhibit IgE binding to FcεRI, a cell-based binding assay was used with radiolabeled IgE. Chinese hamster ovary cells expressing the alpha subunit of the human FcεRI receptor were cultured overnight in Falcon 96 well microtiter plates at a concentration of 5 ×10^4 cells per well. The following day the cells were rinsed three times with PBS and then once with F12/DMEM. Peptide stocks were reconstituted in 100 mM Hepes buffered water, pH 7.2, at a concentration of 5 mg/mL. Working concentrations of the peptide were diluted in assay buffer (see below). 75 uL of a desired concentration of peptide was added to the top row of a separate 96 well microtiter plate and serially diluted 1:3 in 50 uL of the assay buffer (F12/DMEM, 1% BSA, 0.05% NaN_3 and 0.025 mM Hepes pH 7.2). Starting concentrations ranged from 50–500 uM. Next, 50 uL of the diluted peptide was transferred to the 96 microtiter well plate containing a monolayer of CHO FcεRI+ cells. […] Cells were
The size of each peptide was confirmed by mass spectrometry. […] This increase over time was not observed with the other peptides.

[3] = biological target: T2, alpha subunit of the human FcεRI …; assay: inhibition of 125I-IgE binding to CHO cells expressing FcεRI alpha; freshly dissolved peptide (monomer)
Description: as §1, with “Cells were […]” for “Cells were”

[4] = biological target: T3, extracellular domain of the alpha subunit of the human FcεRI (aa 1-176) (human, UniProt P12319 26-201); assay: competitive phage ELISA on FcεRI (FIG. 1)
T3 construct: range 1-176; also called soluble FcεRI; baculovirus-derived FcεRI
T3 sequence (looked up): T1 sequence (looked up)

[5] = biological target: T3, extracellular domain of the alpha …; assay: competitive phage ELISA on FcεRI (FIG. 2)
Description: Phage ELISA assays were carried out as described (Lowman, 1998, supra), using Nunc Maxisorp™ plates coated with a 2 μg/mL solution of baculovirus-derived FcεRI. Peptide-phage were pre-incubated for 5–10 min with serial dilutions of receptor, then added to the receptor-coated plate. After incubation for 1 h at room temperature, the plates were washed and an anti-phage HRP-conjugated antibody (Pharmacia) was added. After further incubation for 20 min, plates were again washed and developed using the substrate OPD (Sigma). Optical density at 492 nm was read and plotted as a function of FcεRI concentration to determine an $IC50$ of inhibition by each peptide-phage variant.
These libraries were sorted for FcεRI binding as described above. […] The "linker region" (underlined) of the peptide was randomized in this library.

FcεRI-IgG [6] = biological target: T4, FcεRI-IgG (UniProt P12319 26-205); assay: competitive phage ELISA: g3 peptide-phage on immobilized FcεRI-IgG, soluble FcεRI-IgG titrated
T4 construct: extracellular domain; Produced from CHO cells (Genentech); also called FcεRI-Fc; bivalent fusion protein of the extracellular domain of FcεRI and the Fc domain of IgG; not shown: Fc domain of IgG
T4 sequence (looked up): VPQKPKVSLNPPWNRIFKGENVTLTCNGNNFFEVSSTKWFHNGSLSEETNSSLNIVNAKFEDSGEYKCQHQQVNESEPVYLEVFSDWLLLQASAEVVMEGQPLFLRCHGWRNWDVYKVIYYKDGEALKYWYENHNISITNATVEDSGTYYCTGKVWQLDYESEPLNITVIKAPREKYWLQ
Description: (§2) This oligonucleotide was annealed with a g3 single stranded DNA phagemid template. The mutagenesis reaction was transformed into XL-1 Blue *E. coli* and plated on LB-carb+ agar plates. Individual colonies were propagated in 5 mL of 2YT broth, tetracycline, carbenicillin and VCSM13 helper phage (Stratagene). Single stranded DNA was isolated from the purified phage particles and sequenced to confirm the insertion of the phage peptide sequence. 25 mL preparations of g3 phage clones were propagated overnight and purified by PEG precipitation. After resuspension of the phage pellet in 1.0 mL of PBS, it was serially diluted 1/3 and incubated with immobilized FcεRI-IgG 2 ug/mL in a 96 well Maxisorp microtiter plate for 1 hour at room temperature. The wells were washed 10× with PBST then incubated with 100 uL of anti M13 phage HRP as described above. An OD(492) value corresponding to less than 50% binding was selected and the purified phage clones were diluted to yield this normalized level of signal. […] The mixture was then transferred to 96 well microtiter dishes containing immobilized FcεRI-IgG. After a 1-hour incubation period, the plates were washed 10 times, incubated with anti M13-HRP conjugated antibody and developed with OPD as described above.
In addition, stepwise N-terminal and C-terminal truncations of the peptide sequence were constructed. All constructs were made by designing oligonucleotides corresponding to the desired substitution or truncation, with an additional 18 bp of DNA overlapping the peptide or g3 phage DNA sequence. The phage clones were propagated overnight following infection in XL-1 Blue *E. coli*. Purified phage preparations were titered and assayed for binding to immobilized receptor. FcεRI-IgG competition assays were performed as described above.

FcεRI-IgG [7] = biological target: T4, FcεRI-IgG; assay: competitive phage ELISA; reference of the N-terminal truncation series
Description: as §2
(§3) In addition, stepwise N-terminal and C-terminal truncations of the peptide sequence were constructed. […]

FcεRI-IgG [8] = biological target: T4, FcεRI-IgG; assay: competitive phage ELISA; reference of the C-terminal truncation series
Description: as §2, §3

VQCPHFCYELDYELCPDVCYV-NH2 (disulfide 7-15, 3-19, also called peptide) [IGE134]
Kd [1]: 32 nM

B1: IGE037 (peptide)
peptide: ALCPAVCYV-NH2
modifications: disulfide 3-7 (inferred); also: reshuffles over 3-12 days into disulfide-linked homodimer, held to be active form
notes: Made as a cyclic monomer
IC50 [2]: 25000 nM | IC50 [3]: ~300000 nM

VQCPHFCYVGGKALCPDVCYV (not shown: M13 g3p display) [IGE122-phage VQCPHFCYVGGKALCPDVCYV]
binding result [4]: binds

IVCPRLCYELDYELCPDVCYV (not shown: M13 g3p display) [phage clone IVCPRLCYELDYELCPDVCYV from the IGE120-phage library (NBO895-619D)]
fold improved affinity over IGE120 [5]: ~2 fold

B2: g3c.42 peptide-phage (peptide)
peptide: NLPRCTEGPWGWVCMAAD
modifications: not fully specified (bridges); cysteine pairing not given here
notes: Monovalent g3p phage display; not shown: fused to M13 gene-3 protein (g3p) on phage
IC50 (FcεRI-IgG [6]): 5.6 nM and 3.1 nM | Relative (IC50) (fold weaker) (FcεRI-IgG [7]): 1 fold | Relative (IC50) (fold weaker) (FcεRI-IgG [8]): 1 fold

Source: patent publication US7101851 (dated 2006)
